What all share (format): binding
In one assay the target is T1, MCL-1ΔNΔC (Homo sapiens, UniProt Q07820).
T1 construct: MCL-1ΔNΔC (aa 170-327) and BCL-XLΔC (aa 1-212) constructs were cloned into pGEX-4T-1; GST (N, cleaved yes); made in house; host or cells: Escherichia coli BL21(DE3)
As to the kind of experiment: In vitro covalent conjugation assay. To be noted: oxidizing conditions. As for the experimental part:
(§1) After this incubation in a reducing environment, the mixture was diluted 5-fold into 50 mM Tris pH 8.0, 100 mM NaCl, 12 mM GSSG and incubated in the dark for an additional 30 min at RT. […] The gel was rinsed with water, subjected to FITC scan (Typhoon FLA 9500, GE Healthcare) and then Coomassie staining.
(§2) Processing for gel electrophoresis and Coomassie staining was performed as above.

The target in a further assay is T2, BCL-XLΔC (Homo sapiens, UniProt Q07817).
T2 construct: MCL-1ΔNΔC (aa 170-327) and BCL-XLΔC (aa 1-212) constructs were cloned into pGEX-4T-1; GST (N, cleaved yes); made in house; host or cells: Escherichia coli BL21(DE3)
T2 sequence (Q07817 1-212, stated change not applied): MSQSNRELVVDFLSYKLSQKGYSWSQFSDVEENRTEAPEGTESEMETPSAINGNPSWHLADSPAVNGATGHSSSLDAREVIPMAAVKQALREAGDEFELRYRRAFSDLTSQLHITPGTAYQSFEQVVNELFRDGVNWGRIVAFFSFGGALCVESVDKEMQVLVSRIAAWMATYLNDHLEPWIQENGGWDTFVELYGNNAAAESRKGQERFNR
As to the kind of experiment: In vitro covalent conjugation assay. The conditions noted are these: oxidizing conditions. As for the experimental part: as §1, §2

Another assay deals with T3, Bfl-1 (Homo sapiens, UniProt Q16548).
T3 sequence (Q16548 1-175): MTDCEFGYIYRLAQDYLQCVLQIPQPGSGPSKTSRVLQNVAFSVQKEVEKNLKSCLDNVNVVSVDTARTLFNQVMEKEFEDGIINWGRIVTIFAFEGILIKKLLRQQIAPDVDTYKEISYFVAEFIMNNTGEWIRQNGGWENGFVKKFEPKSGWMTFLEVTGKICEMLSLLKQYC
As to the kind of experiment: Bfl-1:NOXA conjugation assay (disulfide bond formation). To be noted: compared with BCL-XL and MCL-1; non-reducing SDS-PAGE. How it is done: Next, the impact of the C25 in NOXA was investigated. Bfl-1 and NOXA have cysteine residues within 3.5 Å of the Bfl-1 BH3 binding pocket according to modelling. […] To examine the impact of C25 in NOXA on target interaction, we examined the binding of WT NOXA SAHB and NOXA C25S SAHB to Bfl-1 and to a variety of Bfl-1 cysteine mutants. In vitro conjugation assays were performed in order to verify the formation of the disulfide bond. Global reduction of the protein and the NOXA peptides, followed by the introduction of an oxidant such as GSSG led to production of a disulfide bond, shown as a 3 kDa shift on non-reducing SDS-PAGE (FIG. 4A). […] (FIG. 4A).
Bfl-1:NOXA conjugation assay: The conjugation assay was developed to test for disulfide bond formation in a non-reducing environment. 3:1 FITC-stapled peptide:protein molar ratio was combined in the presence of DTT, then diluted and incubated with 1.2 molar excess GSSG. Samples were then run on non-reducing SDS-PAGE, scanned for fluorescence, then stained with Coomassie.

Bridge positions count the residues as written; N and C are the ends. Square brackets hold non-standard residues; d marks the D form. Ends that are not written are not given here. S5 = C=CCCC[C@](C)(N)C(=O)O

T1 sequence (Q07820 170-327, stated change not applied): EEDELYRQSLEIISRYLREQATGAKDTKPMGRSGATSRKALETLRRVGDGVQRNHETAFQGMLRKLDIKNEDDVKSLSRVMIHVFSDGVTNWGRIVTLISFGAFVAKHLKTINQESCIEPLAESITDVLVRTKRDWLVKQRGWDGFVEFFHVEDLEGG

On to “NOXA SAHBA: stapled NOXA BH3 (aa 19-43) peptide, i, i+4 all-hydrocarbon staple substituting R31 and K35; SEQ ID NO:124 (AELEVECATQLR[S5]FGD[S5]LNFRQKLL; staple 13-17; not fully specified)”, for which the “molecular weight shift or FITC labeling” value in the assay with MCL-1ΔNΔC and with BCL-XLΔC was “no molecular weight shift or FITC labeling” throughout. In addition, in the assay with Bfl-1, the “covalent (disulfide) bond formation” value is “only Bfl-1 forms a covalent bond”.

The values are drawn from patent US12570698B2, “Stabilized peptides for covalent binding to target protein” (Dana-Farber Cancer Institute, Inc., priority 2015, dated 2026).
